This data set can be described thus: soluble on expression in E. coli; label from the status in PepcDB or PDB records.
On to “MRVASVRWFTPPTRPRPAPLFFGQERALRALEAAFLHRGHGYLVGPSGLGKRARLLAFLEGRAFPKEELVYLPLGEEAFPLLLPEGEGRALVEGVEALFAEFTPGLFREKGFLYAKNLVESRHEREAEALLQTLAQEAKAHGFALAEEEGGFTLTGQGPLPPELSAKLEETVLAYVEVRQRAQAEVAALRRSFAERLLQPRVEGLKARFPEAARYLDWLLESLLRAAALEEEVEGEALLPRLLVEGGTRVVYEPNPTPERLFGHLEYEVREGVLTTHLGLLRPGALMRAAGGVLVLEAHRVLELGSYPLLKRSLATGEIEPLAPRPEVRGPRLQPAPLKAQVFLVGPPEVIALLEEDEEFLELFPFRVEFNPEMPYTEAHVAHLGGFLEAQGVRLLPEGLAALADEARRMAGHQERLDARIYRLLDLAREAARYQDPVGREGVERALKAREDRFALEQELFLKDVEEGVVALEVTGERVGEVNGLVVLEGPLPTGRPVRITAQAGPGREGILSIDREVGLGGQVFHKAVLTLAGYLRGTYAQLGALSATVSLVFEQSYGSLEGDSAGLAELLAVLSAISGLPLRQDLAVTGAVDQTGRVLAVGRVAEKVEGFFRVCQTLGLTGTQGVVLPKANLPHLTLRREVVEAVEEGVFHLFAVEEVDEAVELLFGRRAYWVHEKVREALEHFQKLENGDGEKG”, for which the “soluble on expression in E. coli” value is “soluble”. Next, “MRVEIIFLGCGGGRWATITQKKATGGFRIHTNELRMHVDPGPGAIVRLNELKISPWRTNALFISHCHPDHYTDGEIIVEAITQGMTKKRGVFLGSLSVVEGFGEYEYVVSKYHQSKLEEVRVLYPGDSAELYDTTIKATHTKHGDPFGIGFRLSTIYGDIGYTSDTEFIPQLIEDFDGVRILIANIVRKKNERIKGHLCSNDAIDLINSMNKKPELLIMNHMGVKMTNPQIEAEYISQNTGIEVIPARLGLKVELLNGKYKYQLIKLEHHHHHH”: “soluble”; “MRVELFNPSIKKIIVKLSQLKGLWIVQLNLSKNRLSEKKFTDLAVLLSMLKAFGVTYLNLHFNNLGQKTGTELVALFKILKDSGISRLSLSANELYQKTGTELATLLTALSDSDIIQLDLSCNWLGQRQDAELIELFKAWSSTPIIDLDLTNNDLGKKSGIVLSEMFRALKVSSISHLGLRNNDLYQRTGAEFSSLLSAIKDSPVTHLDLSDNGLHLMVAAAFETLFDALKDSSVTHLNLCRNGIGHLDMFQMTAMFCSLQCTGVTHLDLGENSLELMTAEELAAIFQVFKDSRLIHLGLNDSYLNNRTTEDLHLIFNALPANIATIKLSLEELTEMSSEQRQTIQRRFPRAEQVILVNNMEGRELNPSLSLGDANVYRRLGFVGVSPLSLAGLASFFVASNNLRFAREVQKLLPDEVTERIVKNILG”: “not soluble”; “MRVFKTKLIRLQLTAEELDALTADFISYKRDGVLPDIFGRDALYDDSFTWPLIKFERVAHIHLANENNPFPPQLRQFSRTNDEAHLVYCQGAFDEQAWLLIAILKPEPHKLARDNNQMHKIGKMAEAFRMRF”: “soluble”. For “MRVGIVGAGPAGVAAAVFLRRYNVHVTVFEKNRVGGLLRNAHLVENIPVLPPASGEEICKTLEKRLFESGAELIWEEVVKVENEKILTEREIHSFDYVIVASGTIPRRIPEFEVSEKVVYEFIDLPEFEKLAIYGAGDAAFDSALNALVRGKEVHLFNRGSRIRALPLLVERAKKYEKFYYHERCPILKVEEESKMVKLKTEHGVFTFDALLLSVGRLPNTSFVEPGERNFIVGDARGGFRQVSIAMGSAIETAMEILRREGTVSATLPLKEGLLNPNGEHQAG” the value was “soluble”; for “MRVLVRNDKDDFRVKAYAGTNGVLLAMDLDASRRQGLLGFAIEKQTGSKPWLFLFNSLTFPGKAHTFPQYNATPSDQAPLQKFRWADYAVNPGATLNYRVHLAYGNPDAPQLGESLQLSITADNGQPPGQRVIFNRAVAASQAFSRKFPELDALLSANKNLPIEKWPDAPRQWLENGLLEALLGFIQRATDASWSLDIAIYEYQLQAIIDAVNAAFDRGVQVRVLYHAAPGDADTTMNQASLQHLPEANKRGRVTHAIFHDKFIVLGRLDAAGQRQPQSVLCGSTNFTANGVYRQANVLHSLDHVDIATRYLEVFEQVWATPADVGATRTWLTRNNPMQPQAPLFAGFSPRSGQGDLAEFVDIINGARRDLLFVTAFALPDSILDALLGQPHDDVLRYGLQNTASRITGFHADRTAEFAATALLNNGLEGWLKEGLKGQKGNLLVHTKAIVTDFTSEAPVIISGSHNLSVGASQSNDENFLIIRGDIDLADRYGLELLRFYEHYRFRYFARQLALKQVQPLAVDDSWSNAYYLEGDLRQLSRLRFSGRLEHHHHHH”, “not soluble”; for “MRVYVGVDTGGTFTDFVYWDGKEWRVLKIPSTPSNPAEAVLKGLEKLRRGKALDVVHGSTVATNALLERKGAKTALITNKGFEDVIEIGRQNRERLYDLYYRKPKPLVPRELRFGLNCRINAKGEVLKPINREELKEILKALKEKGVESVAVCMLHSYANPEHEKEVEEELKKNLSVFVSLSSEILPEFREYERCSTTVINAYVSPKMSKYLYYLKDRLREGDLFRVMQSNGGLISPETASKEAVRTILSGPAGGVIGALHLGKLAGFEKLITFDMGGTSTDVSLIYGTPNITTESKIDGLPVKVPMIDINTVGAGGGSIAYVDEGGALRVGPQSAGAQPGPICYGRGGKEITVTDANLFLGRLVPEHFLGGEMKLYPELLEEPFKEMAKKIGLAPTELAEGIIKVANSSMERAIRKVSVERGYNPEEFALFSFGGAGGLHAVLLAKSLNIPKVIIPRNPGLLSAVGMLFADIVKDKVTTVMLKEEEAKPETLEKLFLLMEEKVLSEMEGEGFPPEKVFVERFLDVRYKGQSYEITIPFGENFKETFEKEHERLYGYAHRGRKIEIVNLRIKATGIKEKPPLKEFKERGDKYPKDAILGEREVVFEGRLETFKVLDREKLVYGNVIDFPAIVVEYSSTTLIPPYATAEVDRYGNLIITLL”, “not soluble”. Turning to “MSADEFILQQKVHALYSNHRSWLQRWLYRKLGNACDAADLVQDTFISVITGGYADDIREPKPFLATIAGRLVAHRWRRNQLETAYLEALAALPVELMPSPEAHVLALEALLEIDRALDGLPTRVKEAFLLAHLEELSYAQIAERLNVSTSSVKQYLTRANRQCLFALSV”, the “soluble on expression in E. coli” value is listed as “not soluble”. For “MSADEPSPEDEKYLESLRDLLKISQEFDASNAKQNDEPEKTAVEVESAETRTDESEKSIDIPREQQLLPSERVEPLKSMVEPEYVKKVIRQMDTMTAEQLKQALMKIKVSTGGNKKTLRKRVAQYYRKENALLNRKMEPNADKTARFFDYLIAIDFECTCVEIIYDYPHEIIELPAVLIDVREMKIISEFRTYVRPVRNPKLSEFCMQFTKIAQETVDAAPYFREALQRLYTWMRKFNLGQKNSRFAFVTDGPHDMWKFMQFQCLLSNIRMPHMFRSFINIKKTFKEKFNGLIKGNGKSGIENMLERLDLSFVGNKHSGLDDATNIAAIAIQMMKLKIELRINQKCSYKENQRSAARKDEERELEDAANVDLTSVDISRRDFQLWMRRLPLKLSSVTRREFINEEYLDCDSCDDLTDDKVKHLHSCDIYEIFDEKTSASFTDSKCLIC”, the “soluble on expression in E. coli” value is on record as “soluble”.

As to “MSADGAEADGSTQVTVEEPVQQPSVVDRVASMPLISSTCDMVSAAYASTKESYPHVKTVCDAAEKGVRTLTAAAVSGAQPILSKLEPQIASASEYAHRGLDKLEENLPILQQPTEKVLADTKELVSSKVSGAQEMVSSAKDTVATQLSEAVDATRGAVQSGVDKTKSVVTGGVQSVMGSRLGQMVLSGVDTVLGKSEEWADNHLPLTDAELARIATSLDGFDVASVQQQRQEQSYFVRLGSLSERLRQHAYEHSLGKLRATKQRAQEALLQLSQVLSLMETVKQGVDQKLVEGQEKLHQMWLSWNQKQLQGPEKEPPKPEQVESRALTMFRDIAQQLQATCTSLGSSIQGLPTNVKDQVQQARRQVEDLQATFSSIHSFQDLSSSILAQSRERVASAREALDHMVEYVAQNTPVTWLVGPFAPGITEKAPEEKK”, the “soluble on expression in E. coli” value is “soluble”.

Turning to “MSAEKPEVIITYCIQCQWLLRAAWLAQELLSTFSDDLGKVSLQPGTGGAFRITCDGVQLWERKADGGFPEAKVLKQRLRDQIDPARDLGHNDRQTPSNPQ”, the “soluble on expression in E. coli” value is “soluble”. For “MSAEQVWQGNFEQLCLFHNLQGRWPGCREGALGRWCTIQRRDYRKGNMSDERKAQLERIGFPLALEHHHHHH” the value was “not soluble”.

Consider “MSAGVQLPLDLPWRPALGREHFLVAACNASAVALVEAWPHWPAPAACIHGPTGAGKTHLAQVFATRAAAVVLDPAVILGTDPLTLFEGGRAAVIEDADRAGLPEATLFHLLNAARQRGGSLLLTALSPPARWGVHLADLRSRLAALPAEGLCEPDDELMAAVLLKLFSDRGLDVAPGAIGYLLPRMERSFAAARDLVVHADALALREGRAVTVPLLRQLLATPDRADRLEHHHHHH”, for which the “soluble on expression in E. coli” value was “not soluble”. For “MSAKEKFTSLSPAEFFKRNPELAGFPNPARALYQTVRELIENSLDATDVHGILPNIKITIDLIDDARQIYKVNVVDNGIGIPPQEVPNAFGRVLYSSKYVNRQTRGMYGLGVKAAVLYSQMHQDKPIEIETSPVNSKRIYTFKLKIDINKNEPIIVERGSVENTRGFHGTSVAISIPGDWPKAKSRIYEYIKRTYIITPYAEFIFKDPEGNVTYYPRLTNKIPKPPQEVKPHPYGVDREEIKILINNLKRDYTIKEFLVNEFQSIGDTTADKILELAGLKPNKKVKNLTEEEITRLVETFKKDEDFRSPSADSLSVIGEDLIELGLKKIFNPDFAASITRKPKAYQGHPFIVEAGVAFGGSIPVGEEPIVLRYANKIPLIYDEKSDVIWKVVEELDWKRYGIESDQYQMVVMVHLCSTKIPYKSAGKESIAEVENIEKEIKNALMEVARKLKQYLSEKRKEQEAKKKLLAYLKYIPEVSRSLATFLASGNKELVSKYQNEISEGLFKLISKKLDLINIEEYRKVYRVDSE” the value was “soluble”; for “MSALNELLHDDAIDLNAHAETWQEAIAQAGALLEKTGAITSAYTESMISSVEEQGPYIVVAPGFAFAHARPSEAVKRTAIAWTRLDSPVEFHHSSNDPVTLVVALAAQDDQAHTAAMREIAQVLGSRRRDLDTVATVAELRGVLEASKRRKSRGVAGGATHVTAQDSVESKGKILTVCGNGLGTSLFLKNTLDQVLDTWGWGPFVSTEATDTISAKGRAKEADFLLTSEEIARTLGDVGVPVYVISNFTSEDEIDAALRELYDV”, “not soluble”; for “MSAPAAGATAGGDDAADRNVEMWKIKRLIKSLELARGNGTSMISLIIPPKDQVARIQRMLAEEYGTASNIKSRVNRLSVLGAITSVQGRLKLYNKVPPNGLVVYCGTIMTDEGKEKKVNIDFEPFKAINTSLYLCDNKFHTEALQGLLADDNKFGFIIMDGNGCLFGTLQGNTREVLHKFTVDLPKKHGRGGQSAVRFARLRNEKRHNYVRKVAENSVEQFIKNDKVTVAGLILAGSADFKTELGQSDMFDQRLQAKMIKTVDIAYGGENGFNQAIELAADTLASVKFIQEKKLIGGYFDEISQDTGKYVFGVKDTLAALEMGAIETLICWENLDIVRYKMKNSLGEDILLNLRPDEEKDKSHFTDSETGQDMEIIETMPLLEWFANNYKNFGAALEIVTDKSQEGAQFVRGFGGIGGLLRYRVDLAHVDLEDELDNIDLDDY”, “not soluble”. “MSASSERELYEAWVELLSWMREYAQAKGVRFEKEADFPDFIYRMERPYDLPTTIMTASLSDGLGEPFLLADVSPRHAKLKRIGLRLPRAHIHLHAHYEPGKGLVTGKIPLTKERFFALADRAREALAFA”: the “soluble on expression in E. coli” value is “soluble”. Regarding “MSATLPCGMHKCQRLCHKGECLVDEPCKQPCTTPRADCGHPCMAPCHTSSPCPVTACKAKVELQ”, the “soluble on expression in E. coli” value was “soluble”.
